Test results: the DeepSol protein solubility set

Assay: soluble on expression in E. coli; label from the status in PepcDB or PDB records

Sequence | soluble on expression in E. coli
MSLEESAVPGWVLELLREAGYKSLLPIQEKAFPIIYRGLNALVVAPTGSGKTEAALAPLLARLRNGRVASGGGVKVVYVTPLRALNRDLEGRVERLAGLFGYTVQVRHGDTVQSSRRRFLERPPDIVITTPESLALLLTVKRAKEVLKQARAVVVDEIHELMESKRGVELSLNLEKLELMAGRRLQRIGLSATVSRHSLYRAASLLGAGRHVSMVLDTSPKEYDVRVVVVGDEGRFWENSVKAIAELVKGEGGSVLIFANTRSTVETLAFALSRELGEEVPAHHGSLSRHVRERVERDFKEGRVKAIVATSSLELGIDVGRVALVVQFLSPRQVTAMVQRAGRSGHRFGERSRAVIVTIDNVFEVLESHVIAFRAMKGDLEDISIPKKPYDALAHFMAGAAIDSEPPTLEGVYKLAVSTAPYEDLKMEEVEEIARVLSDVRVIRLGPGGKLGRSSRTYSYFYRVSMIPDEKTFKVHDVVSGRDVGEVGERFIQLRLMKASDPREGHHHHHH | not soluble
MSLEFANFDSDLQYFLFQHIAVLLTANTKYRRALLLYGGAKNGKSVFINLVRSFFYSEDIVSKALNELQGRFDKESLVGKKLMASDEIGESRIQEKIVNDLKKLVSVEPVHVDRKGKTQVETTLDLKLAFGTNARLNFPSAHAKALERRIAVIPCEYYVEKADPDLIEKLQDEKKEIFLYLMYVYKQIVKNDIEYLQNDRVTEISHDWLNFGYEFVSSKSASIANQKACINLLRKLIEIKPGSRIKVSELNKVINEEIKVSSQVIKQLIQANFDTQTKLYNGYDYWIDLGWKEADKKEIHDISKKDNIISLDKNENITDDETLDEENLDFDWEDFDDEGHHHHHH | not soluble
MSLEHFFTGTVDRIIFENAANFFKILLLAIEDTDSDIDDFEIIITGTMADIIEGDDYTFWGELTQHPKYGQQLKLSRYQKIKPSSSGLVNYFSSDHFKGIGKKTAEKIIALYGHNTIDHILEDPSKLETISGLSKANRQAFVAKLKLNYGTEQLIAGLVELGLSNRFALQAFEKYKEEALDLVKENPYQLVEDLQGFGFKMADALAENLGIESDSPKRFRAALLHCLLEESINRGDTYVQARQLLDFAITLLEDARQVECDPAAVAEQLSELIIEGKIKNSDTKLFDASLYFAEEGIANNISRLLDTPLSQSFSHDTIQTTIQAVQKDFAITYDQVQQEAITKALTSKVFLLTGGPGTGKTTVIRGILQAYANLHQIDLDKKDLPILLAAPTGRAARRMNELTGLPSATIHRHLGLNGDNDYQAMEDYLDCDLLIVDEFSMVDTWLANQLLGAINSTTQVIIVGDSDQLPSVGPGQVLSDLLKVNSLPQIALQKIFRQSQESTIVNLADQMRRGILAADFRDKKADRSYFEAQAAFIPDMIQKIVLSAIKSGIPAEEIQILAPMYKGQAGINHLNQLMQELLNPLQGQTEFLFNDTHFRKGDKVLHLVNDAQLNVFNGDIGYITDLIPAKYTESKQDELILDFDGSEVTYPRNEWLKLTLAYAMSIHKSQGSEFQVVILPITRQSGRLLQRNVIYTAITRSKSKLILLGEYTAFEYAIKHEGDKRQTYLIERFQEQSDLASSEGHHHHHH | soluble
MSLEIKFLSLCILAGVLFVSQVNASANNGKDDVKYAALTQKDLDALPVEKRASVLDELGFIHEYGLSVPMNRERALQYYKQACELGGNYGCYNVKYAYQYGDGVAKDSAQANKYAKKMNLDNLLIEQEYIDKFSQEIYMAKALADTDKSQRAAFISILIHALNNRPESDALFFSRIGFNQEKTFRLATLWSQDGDPQMDYQMGRLTLNDFSGRYADEPYQARPASLKWFRAAAEKGVVEAQSLLGGIYSGGEGDEWGIKPDIQEAQKWYGQAAKQGDSDAQIALGKIYYSGATGRTDYAKALALFTQVENDGTNSRSTMPLSWMYYNGLGTAPDCDKAWSYYKKASRYVGKKVEEGHHHHHH | not soluble
MSLEISKQTSDLLLSLEKKKGTLPKFSVLRSIPRNRIIYGAPGTGKSNYLEREVGKIFGDNPYVFTRVTFFPGYTYGQFIGAYKPVPIYKKLSGEEEIFSSNFRDKMENFEPMIDYQFVPGPFIDVLIKALKNRYTNFILIIEEINRANAASVFGDIFQLLDRNKNGESDYPVTFGPDIMNYLARNGIKDEMIKLPSNFFIWATMNNADQGVLPLDTAFKRRWSFEYLELEKYRKAVDSWKLSLRYKGHNKVIMWNDFRDIINKRLKGKVPEDKLLGPFFLKESELWNQNVFKNKLLYYLKEDVFKHNPTIDFLNASTFSELIEKYDGSDNIFTFDIDDSSFVSDEGGSHHHHHH | soluble
MSLEKQIESYYQEIAQLIIDMIPEEWAEVRFYAQEDHDGWKIFFFHYLSASSDEWTKDIDIRDVIKVPQDEFMEKYNELSFCISDFRKDYAEAFGEPWMSFQMTFYASGKFNIDFYYDKNPFDTFLTRLAWQYEHFGTIPEDSFYKETLNEYLEEKAQGKRYPFLEPLKEEEGHHHHHH | soluble
MSLEKQMNCNLKELKEFIDNEMLLILGQMDKPSLIFDHLYLGSEWNASNLEELQGSGVDYILNVTREIDNFFPGLFAYHNIRVYDEETTDLLAHWNEAYHFINKAKRNHSKCLVHCKMGVSRSASTVIAYAMKEFGWPLEKAYNYVKQKRSITRPNAGFMRQLSEYEGILDASKQRHNKLWRQQTDSEGHHHHHH | not soluble
MSLEKTTRMNYLFDFYQSLLTSKQKSYMSLYYLDDFSLGEIAEEYEVSRQAVYDNIKRTEAMLEQYEEKLLLLKKFQERKEMFNKLKELASGSKEEEEITALIEALEKLD | soluble
MSLELAQQWTQQRQALGERDDAMAALKTLDSSYAATTVFPPKGEVSLHERAGLYQGNEVNPPLAAAYRRELETQLLPRVARMLEAQIRGNMQNRERLLNSLRAYLMLNLRERRENGWLKDWVATDWSQRYAGNGTVQNGLNTHFARLLEQPFSYPLNETLVAQARQVLRSESLANVVYRVLREQARSLPEYRFGQHLGPQAGLFVGTDYVIPGFYTQQGYQQYFVVQGASLVNDILRDNWVLGEGSGISDMDLRRLMVELEQLYFRDYANFWSEAVGRLGLLPFNDAGEGADQVSGLLAANSPILQLLLEVRENTRFPVLAESAEALAEASDKAAEKGGKLGKAAAAAAGKARDALAKNLPDTAKKSLQRRFEPLHRLLDDNNGPAADLTPLLQALNELQLQLAGLARASQPEQEGHHHHHH | soluble
MSLELKNKKIVVTGGTSGIGLAFAKKLAAIDNQIIIGSRSKEKITEVVKDNKNISGYQVDVSDQESVERFYKQTISEFKNIDIVINSAGIMRHYNLLDEKTTSQKLQAEIQTNLIGTINIDKIFLPILRKQAESMIVNISSGLANLSSAAHPIYSATKAGVHMFTDALREQLHFAGEDHIHIVELVPPLVAETNLEKDVNSQNTPLNIKLSDLINEAIQGIEENSIRINAGMAKEMRKMGQTDPDKNEREMATMMIPMYFPDGLKEGHHHHHH | not soluble
MSLELKPKRFLVLDDQLVLRKLISRQASFFTRFAVEIDEFSDPAEALRSIAEGGYHLVITDIGMPGMNGIDFIKNVARLGYQSALLIISGYDGKTLQTIADMSVNLGLSCTRFLSKPYSAEAFVAALNGIFSEMERSEAEGHHHHHH | not soluble
MSLELLIPQLEFLNEEGAQAEVWALSRIFLDTLVKETGQKVKAIFPDAGAAALLKYQWTDAEFKCASLSDRKPVDVEDEVVVMIIPDHQMVESVERIASQLSDDPIRPLVMWNPRLVSGDVGVGFNVRNLRRNFLSTFTTVYSMRPLPTGAVFRQYPGKWKVFYDDPKRPNRYLLARELVSRPDATDIEIIFGGGDEQSDEAPSLMNNVMGVFSSVSRFMRVISKEGHHHHHH | not soluble
MSLENKRILITGGAGFIGSNMVEHLLPKNEVTVIDNLSITDDRYIKKFYDNPNFKFIKKDILNGIDGYHYDIVVHLAADSDVRNGSSNPALDMKVNVEGTISVLEMMRKSDIKDILFASSSTVYGEAKVIPTPENYGPLLPISSYGASKLAAEAFISAYASYYGFNALLFRFANVVGKNSTHGVIFDFINKLKNNKKELEVLGDGTQAKSYIHVEDLIGSMIYVYEHVKGVEPFNLGNDDVTSVDKIAKFVLEAMGLKDTAIVHRGGYNGRGWPGDVKYAMMDIAKLKKTGWKNKYSSDEAVKKSINEVMNQILEGHHHHHH | soluble
MSLEQKILAQGALEAARRRQSEQEKALLLSQLKQLQSQMEPHFLFNTLANINALIAVEPYKAQLMLEKFTELLRGTMRLRRTNTGDLREEMQLIDAYLGIQKIRLGERLEYTLPELSELGTLGMPPMLIQPLVENAVSHGIEPKAEGGTIRVRIEVADDWFELSVEDNGMGLSDTPKGNGIALQNVRDRLSGLFGHEGLLTVAQNCSGGVTATLRIRLHHLQGLQRSFYDYSQARSPQSEGHHHHHH | soluble
MSLERQTLKQKLSTLIQPLQTAKRGAPLTNRTLSATTCQQIESLVTAIEALNPNLSPLLYSPQLLDGNWWLNYSTAREIRSLDKLPLGLKVGRIYQIINVPNQSFLNQAFVYHPLGLAKGYVKVTAKFEIAKPAGTVLPDKRINVEFLERMISIQKLMGVPTPKLDPAKVVPARSPEGRIPFLEITYLDDDLRIGRGGEGSLFVLSKVSEVTPLEHHHHHH | not soluble
MSLESIKVVIVGGGQAGIAMGYYLVKEKVPFMILDANEQVGDSWRNRYDSLVLFTPRTYSQLPGFPMDGAPNGFPTKDEMASYLQQYANHFNLPMRHHTKVDRVTRQQNGRFHLKTTNGWIEAEKVVIATGAFQKPYLPPVLDSANNEMSQVHSSAYRNPAQIPGKSVLVVGGGNSGAQIAVELAKERNVTMAISHPFRFLPLKLLNKSMFSWLEWGGLLYAGIDTTRGRWFKKQKDPIFGKELKSLIKKGQIHLKPRVMNVQGKEVEFADHSRLSFDRIIWSTGFSPSYEWIDIDGVIATNGWPIHNRGITNIRGLYFLGLPWQYQRGSALVCGVGRDAEYLVPFIKHGDKEGHHHHHH | soluble
MSLETKTPNDAKNQVQTHERMKTSSEHVTPLDFNYPIHIVQAPQNHHVVGILTPRIQVSDNLKPYIDKFQDALINQIQTIFEKRGYQVLRFQDEKALNAQDKRKIFSVLDLKGWVGILEDLKMNLKDPNNPNLDTLVDQSSGSVWFNFYEPESNRVVHDFAVEVGTFQAMTYTYKHNNSGGLNSSNSIIHEYLEKNKEDAIHKILNRMYAVVMKKAVTELTKENIDKYREAIDRMKGFKSSMPQKKEGHHHHHH | soluble
MSLETQDHTLYVLLGPTGVGKTDLSLDIAERLGSPIISADSRQIFRELPIGTAAPTPEQRARVPHLFVGTHSVRDYYSAGMYEVEVLEALKELFRKYRGVLLTGGSMMYIDAVCRGIDDIPDPFPEVREELYARYAAEGLDGILAQLRLLDPDYYAKVDRRNYKRVIHGLEICLSTGRPFSSFHRHEAKERPFRIVKIGLYREREELCKRIDARVLEMMEQGLEEEARAVYPLRHLNALNTVGYKEMFEYFDGSIDRAEAVRRIQRNSRVYARKQMTWFRRDSTIRWFHPEADKGTVLTLVTEGHHHHHH | soluble
MSLEVLATFLYKFNGWSFLGRVLQNLSKNFDFTDREKVDTIVDIMSMLTKVVGEVSVEDSKHALTSMSAYTDDSDVLEVIFRLFEQSLHSRNIRMIESILNLLTQLVPIFSYRIWPAFSKSALLFDGTREGFATVIFGSIEMVNGDFRLTIALAKLTDALVYDCLTLDNAVPSKVKEAVLKKLVSHLIAVMESYAQEGHHHHHH | soluble
MSLEYKYDVVIVGLGPAGSSLAYLLKDTGLKVAGLDIADFNRVWGKPCGDAIGKGHFLETGLPLPKGEAMMQVVNAVDIYSPSEEVKIRLSEPEGGFMIDRNKYGLQLLEEAQKSGVDVYLKTHALSPIIENGRLVGVYAKRHGEDGDVNVKFYSKIIVDATGSGGAIKRKLPSSWPVVEPLKPTDSAVAYRKIVELDYDIEEPDVIRIYINADIAPGGYWWLFPKGRRIANIGIGVQRGRGYPHPRHLYEKYLDKRPDTGRVVRLLNEAGALLPTRRPANTIVWDNFVSIGDNAYTVNPVHGGGMGYAMTAAMYAARGIEKAFEKGDYSVETLWDINLGYMRSTGAKQAGLDILRIYLQTLTNEEVEWAMRNGLANVDNLVEASTQGEIKRLNLTLLEKAKVLARLLGRPTKLMELLTVAEYMSKVKKLYYEYPERPDGLPRWVDRVETLYREYKARLGIDWEGHHHHHH | soluble
